Substrate in series [1]: NCCc1ccccc1
The series can be described thus: Steady-state substrate oxidation and pH dependence, WT MAO B. The class given is biochemical, human. Conditions: other: WT MAO B, pH 7.5.

Substrate in series [2]: NCCC(=O)c1ccccc1N
Described as above. The class given is biochemical, human. The settings on record: other: WT MAO B, pH 7.5.

Substrate in series [3]: NCc1ccccc1
The series can be described thus: purified protein, by the assay type. The settings on record: pH 7.5.

Substrate in series [4]: NCCc1ccccc1
The series can be described thus: Steady-state substrate oxidation and pH dependence, Ile199Ala/Tyr326Ala MAO B. The class given is biochemical, human. The settings on record: other: I199A-Y326A, pH 7.5.

Substrate in series [5]: NCCC(=O)c1ccccc1N
The description is as above. It counts as biochemical, human. The settings on record: other: I199A-Y326A, pH 7.5.

Substrate in series [6]: NCCc1ccccc1
The series can be described thus: Steady-state substrate oxidation and pH dependence, Ile199Ala MAO B. It counts as biochemical, human. The settings on record: other: I199A, pH 7.5.

Substrate in series [7]: NCCC(=O)c1ccccc1N
The series is described as above. The class given is biochemical, human. The settings on record: other: I199A, pH 7.5.

Experimental findings from paper PMC3228903 are described below.

By Km is commonly meant the concentration of substrate that gives half-maximal velocity. As a reminder, the kcat is the maximal rate divided by the concentration of active sites. As usually defined, the kcat/Km is the turnover number divided by the Michaelis constant.

B1: WT MAO B (Homo sapiens) (protein)
chain: MSNKCDVVVVGGGISGMAAAKLLHDSGLNVVVLEARDRVGGRTYTLRNQKVKYVDLGGSYVGPTQNRILRLAKELGLETYKVNEVERLIHHVKGKSYPFRGPFPPVWNPITYLDHNNFWRTMDDMGREIPSDAPWKAPLAEEWDNMTMKELLDKLCWTESAKQLATLFVNLCVTAETHEVSALWFLWYVKQCGGTTRIISTTNGGQERKFVGGSGQVSERIMDLLGDRVKLERPVIYIDQTRENVLVETLNHEMYEAKYVISAIPPTLGMKIHFNPPLPMMRNQMITRVPLGSVIKCIVYYKEPFWRKKDYCGTMIIDGEEAPVAYTLDDTKPEGNYAAIMGFILAHKARKLARLTKEERLKKLCELYAKVLGSLEALEPVHYEEKNWCEEQYSGGCYTTYFPPGILTQYGRVLRQPVDRIYFAGTETATHWSGYMEGAVEAGERAAREILHAMGKIPEDEIWQSEPESVDVPAQPITTTFLERHLPSVPGLLRLIGLTTIFSATALGFLAHKRGLLVRV
B1: in series [1], the Km was determined as 9.4 ± 0.9 µM, the turnover number (kcat) came to 2.87 ± 0.05 s⁻¹ and the kcat/Km stood at 300000 ± 33300 M⁻¹ s⁻¹. In series [2], the Km worked out at 27 ± 2 µM, the kcat turned out to be 1.6 ± 0.0167 s⁻¹ and the kcat/Km amounted to 59200 ± 4500 M⁻¹ s⁻¹. Also, in series [3] (other: WT MAO B), the Michaelis-Menten constant (Km) is 150 ± 27 µM, the kcat came out at 5 s⁻¹ and the catalytic efficiency (kcat/Km) stood at 33300 M⁻¹ s⁻¹.

B2: Ile199Ala/Tyr326Ala MAO B (Homo sapiens; I199A/Y326A) (protein)
chain: MSNKCDVVVVGGGISGMAAAKLLHDSGLNVVVLEARDRVGGRTYTLRNQKVKYVDLGGSYVGPTQNRILRLAKELGLETYKVNEVERLIHHVKGKSYPFRGPFPPVWNPITYLDHNNFWRTMDDMGREIPSDAPWKAPLAEEWDNMTMKELLDKLCWTESAKQLATLFVNLCVTAETHEVSALWFLWYVKQCGGTTRIASTTNGGQERKFVGGSGQVSERIMDLLGDRVKLERPVIYIDQTRENVLVETLNHEMYEAKYVISAIPPTLGMKIHFNPPLPMMRNQMITRVPLGSVIKCIVYYKEPFWRKKDYCGTMIIDGEEAPVAATLDDTKPEGNYAAIMGFILAHKARKLARLTKEERLKKLCELYAKVLGSLEALEPVHYEEKNWCEEQYSGGCYTTYFPPGILTQYGRVLRQPVDRIYFAGTETATHWSGYMEGAVEAGERAAREILHAMGKIPEDEIWQSEPESVDVPAQPITTTFLERHLPSVPGLLRLIGLTTIFSATALGFLAHKRGLLVRV
Turning to B2, in series [4], the Km was determined as 703 ± 58 µM, the catalytic constant (kcat) is 1.83 ± 0.0333 s⁻¹ and the kcat/Km was 2670 ± 167 M⁻¹ s⁻¹. In addition, in series [5], the Km stood at 289 ± 23 µM, the kcat turned out to be 1.07 ± 0.0333 s⁻¹ and the kcat/Km came to 3670 ± 333 M⁻¹ s⁻¹.

B3: Ile199Ala MAO B (Homo sapiens; I199A) (protein)
chain: MSNKCDVVVVGGGISGMAAAKLLHDSGLNVVVLEARDRVGGRTYTLRNQKVKYVDLGGSYVGPTQNRILRLAKELGLETYKVNEVERLIHHVKGKSYPFRGPFPPVWNPITYLDHNNFWRTMDDMGREIPSDAPWKAPLAEEWDNMTMKELLDKLCWTESAKQLATLFVNLCVTAETHEVSALWFLWYVKQCGGTTRIASTTNGGQERKFVGGSGQVSERIMDLLGDRVKLERPVIYIDQTRENVLVETLNHEMYEAKYVISAIPPTLGMKIHFNPPLPMMRNQMITRVPLGSVIKCIVYYKEPFWRKKDYCGTMIIDGEEAPVAYTLDDTKPEGNYAAIMGFILAHKARKLARLTKEERLKKLCELYAKVLGSLEALEPVHYEEKNWCEEQYSGGCYTTYFPPGILTQYGRVLRQPVDRIYFAGTETATHWSGYMEGAVEAGERAAREILHAMGKIPEDEIWQSEPESVDVPAQPITTTFLERHLPSVPGLLRLIGLTTIFSATALGFLAHKRGLLVRV
Regarding B3, in series [6], the Km was 40 ± 2 µM, the turnover number (kcat) worked out at 2.05 ± 0.0333 s⁻¹ and the catalytic efficiency (kcat/Km) stood at 51700 ± 3330 M⁻¹ s⁻¹. For the same protein, in series [7], the Km is 94 ± 8 µM, the kcat stood at 1.47 ± 0.0333 s⁻¹ and the specificity constant (kcat/Km) stood at 15600 ± 1370 M⁻¹ s⁻¹. Also, in series [3] (other: I199A), the Km is 2133 ± 409 µM, the kcat came out at 3.8 s⁻¹ and the kcat/Km stood at 1780 M⁻¹ s⁻¹.
